This note sets out measurements from doi:10.1101/2020.10.23.352708.

Some targets named below: CXCR4 V112L (human) (UniProt P61073); CXCR4 D97E (human) (UniProt P61073); CXCR4 L41A (human) (UniProt P61073).
What all share (assay): flow cytometry on cells

For the substance “Endogenous Peptide Inhibitor of CXCR4 (EPI-X4)”, the fold increase of the IC50 against wild-type CXCR4 was 6 fold in the assay with CXCR4 V112L (human) and 20 fold with CXCR4 L41A (human). The substance also came in with a fold reduction of the binding affinity against wild-type CXCR4 with CXCR4 D97E (human) of 20 fold.
